Earlier results in patent publication US20100143424A1, “CASEIN NANOPARTICLE” (FUJIFILM CORPORATION, priority 2008, published 2010).

Conditions: casein derived from milk, Wako Pure Chemical Industries

Substance: casein
- isoelectric point: 4.3
